Numbering of substitutions follows the chain as printed. Names and notes keep the numbering of the source. Values joined by “and” are separate entries in the source; they are usually repeats but may differ in a detail not shown here. Equal entries are not always repeated.
B1: AVR3: Recombinant chicken avidin-related protein 3, produced in Sf9 insect cells (protein, UniProt P56733 25-150, looked up)
Avidin-related protein 3: ARKCSLTGKWTNNLGSIMTIRAVNSRGEFAGTYLTAVADNPGNIKLSPLLGIQHKRACQPTFGFTVHWNFSESTSVFVGQCFIDRSGKEVLKTKWLQRLAVDDISDDWKATRVGYNNFTRQRTVEE
B2: AVR1: Recombinant chicken avidin-related protein 1, produced in Sf9 insect cells (protein, UniProt O13153 25-150, looked up)
Avidin-related protein 1: ARKCSLTGKWDNDLGSIMTIGAVNDNGEFNGTYITAVADNPGNITRSPLLGIQHKRACQPTFGFTVHWNFSESTSVFVGQCFVDKSGKEVLKTKWLQRLAVDDISDDWKATRVGNNDFTRQRTVEE
B3: AVR2: Recombinant chicken avidin-related protein 2, produced in Sf9 insect cells (protein, UniProt P56732 25-150, looked up)
Avidin-related protein 2: B2 Avidin-related protein 1 with K9E, N30D, R46L, C58S, K85R, K109I, R122H
B4: AVR7: Recombinant chicken avidin-related protein 7, produced in Sf9 insect cells (protein, UniProt P56736 25-150, looked up)
Avidin-related protein 7: B1 Avidin-related protein 3 with K9E, T11D, I17N, R21G, S25D, R26N, A30N, L34I
B5: AVR6: Recombinant chicken avidin-related protein 6, produced in Sf9 insect cells (protein, UniProt P56735 25-150, looked up)
Avidin-related protein 6: B2 Avidin-related protein 1 with K9E, D13N, T45K, R46L, K85R, N115Y, D117N
B6: AVR4/5(N43E): AVR4/5 mutant, residue 43 changed to glutamate to avoid glycosylation (protein, UniProt P56734 25-150, looked up, variant N43E)
Avidin-related protein 4/5: ARKCSLTGKWTNNLGSIMTIRAVNSRGEFTGTYLTAVADNPGEITLSPLLGIQHKRASQPTFGFTVHWNFSESTTVFTGQCFIDRNGKEVLKTMWLLRSSVNDISYDWKATRVGYNNFTRLCTVEE
B7: AVR4/5 + 2-mercaptoethanol: AVR4/5 analyzed in the presence of 2-mercaptoethanol (0.4% v/v) (protein, UniProt P56734 25-150, looked up)
Avidin-related protein 4/5: B6 Avidin-related protein 4/5 with E43N
modifications: with 2-mercaptoethanol

Columns and labels:
[1] = IASyS optical biosensor, AVR binding in a biotin cuvette; details: for Kd: biotin cuvette, 20.0° C.; for kass / kdiss: biotin cuvette (as for Kd of these proteins)
Method: The biotin-binding characteristics of the AVR proteins were studied as previously described using the IASyS optical biosensor (Marttila, A. T., Airenne, K. J., Laitinen, O. H., Kulik, T., Bayer, E. A ., Wilchek, M. and Kulomaa, M. S. (1998) FEBS Lett. 441, 313-317; Laitinen, O. H., Airenne, K. J., Marttila, A. T., Kulik, T., Porkka, E., Bayer, E. A., Wilchek, M. and Kulomaa, M. S. (1999) FEBS Lett. 461, 52-8). Affinities were measured for 2-iminobiotin or biotin at 20.0° C. using a stirring power of 100%. Briefly, the protein under study in biotin-free buffer was allowed to bind to the biotin-coated surface of the IASyS cuvette. As a negative control, the protein under study was saturated with excess biotin prior to (and was also maintained under biotin excess upon) addition to the cuvette. Under these conditions, residual binding to the biotin surface of the cuvette could be regarded as unspecific, and was used as a measure of baseline variation. Binding equilibrium in the experimental cuvette was considered to be attained after no binding was detected as compared to negative control.
The actual dissociation constants (Kd) were calculated for the AVRs according to the kass and kdiss rates measured in a separate assay in different protein concentrations (varying between 10 μM and 100 pM) (Table 4 and FIG. 6). The binding seemed to follow two-order or even more complex kinetics. However, the first 1000 seconds of the binding fitted considerably well to the bi-phasic curve. All measured dissociation rate constants (kdiss) followed the first-order kinetics. Because of the extremely high binding, affinities of the AVRs for biotin could not be determined except for AVR1, AVR2 and AVR7. Binding to 2-iminobiotin was determined only for AVR4/5, and it was similar to that of avidin. The lack of binding for the other AVRs was surprising, since most of them were purified using 2-iminobiotin agarose.

[2] = IASyS reversibility of biotin binding of avidin and AVRs; details: biotin cuvette, after addition of free biotin (0.17 mg/ml)
Method: The reversibility of biotin binding was studied as follows: Avidin and the AVRs were allowed to bind to a biotin-coated cuvette. After measuring the initial binding (A) as described above, biotin-saturated (0.17 mg/ml) buffer was injected into the cuvette and the amount of proteins remaining bound was measured until no dissociation was seen, again as compared to the negative control cuvette (B). The measurement time was at least 20 minutes. The percent reversibility was calculated as follows: reversibility (%)=100*(A−B)/A. A−B is the amount of liberated proteins after biotin adding.

[3] = Non-reducing SDS-PAGE thermostability, oligomeric forms after boiling; type: physicochemical; details: boiled 20 minutes
Method: (§1) The heat stability of the AVRs was studied by using an SDS-PAGE-based method (Bayer, E. A., Ehrlich-Rogozinski, S. and Wilchek, M. (1996) Electrophoresis 17, 1319-1324). In this method, each protein sample was divided into two fractions one of which was kept biotin-free and the other was supplemented with an excess of biotin. The samples were then mixed with denaturing SDS-PAGE sample buffer (containing β-mercaptoethanol) and incubated at a given temperature for 20 minutes. After heat treatment, the samples were subjected to SDS-PAGE and visualised by staining with Coomassie brilliant blue. The relative proportions of tetrameric and monomeric forms of the AVR proteins (with avidin as the control) were detected. A similar assay, with β-mercaptoethanol omitted from the sample buffer, was performed to examine the presence of intersubunit disulfide-bridges. Sensitivity to proteinase K was studied both in the absence and in the presence of biotin as described (Laitinen, O. H., Airenne, K. J., Marttila, A. T., Kulik, T., Porkka, E., Bayer, E. A., Wilchek, M. and Kulomaa, M. S. (1999) FEBS Lett. 461, 52-8). The isoelectric point of each AVR was determined by isoelectric focusing as previously reported (Marttila, A. T., Airenne, K. J., Laitinen, O. H., Kulik, T., Bayer, E. A., Wilchek, M. and Kulomaa, M. S. (1998) FEBS Lett. 441, 313-317). The glycosylation patterns of the AVR proteins were studied by treating the proteins with Endo Hf and PNGase F glycosidase according to the manufacturer's instructions (New England Biolabs, Mass., USA).

Isoelectric focusing = type: physicochemical
Method: as §1

[4] = IAsys optical biosensor, AVR4/5 forms binding to 2-iminobiotin surface; details: for Kd: 20° C.
Method: The biotin-binding characteristics of the different avidins were studied using an IAsys optical biosensor at 20° C. The reversibility of binding and binding affinities to the 2-iminobiotin surface in 50 mM borate buffer (pH 9.5, 1 M NaCl) were measured as previously reported (Laitinen, O. H., Hytönen, V. P., Ahlroth, M. K., Pentikäinen, O. T., Gallagher, C., Nordlund, H. R., Ovod, V., Marttila, A. T., Porkka, E., Heino, S., Johnson, M. S., Airenne, K. J. & Kulomaa, M. S. (2002) Biochem. J. 363, 609-617).
Briefly, The 2-iminobiotin ligand was immobilized onto the carboxymethyldextran surface of a cuvette using N-hydroxysuccinimide activation. Binding of various concentrations of avidin or avidin mutants onto 2-iminobiotinylated surface were measured in a 50 mM borate buffer (pH 9.5) containing 1 M NaCl at 20° C. The iminobiotin cuvettes were regenerated with 20 mM HCl. The kinetic rate constants for association (kass) and dissociation (kdiss) were calculated using the Fast Fit program package (Affinity Sensors). The obtained rate constants were used to calculate Kd(rel) according to Kd=kdiss/kass. Equilibrium data obtained from measurements with different protein concentrations were used to calculate the dissociation constant Kd(eq).

[5] = IAsys reversibility of binding to biotin, AVR4/5 forms; details: biotin cuvette
Method: The biotin-binding characteristics of the different avidins were studied using an IAsys optical biosensor at 20° C. […] H., Hytönen, V. P., Ahlroth, M. K., Pentikäinen, O. T., Gallagher, C., Nordlund, H. R., Ovod, V., Marttila, A. T., Porkka, E., Heino, S., Johnson, M. S., Airenne, K. J. & Kulomaa, M. S. (2002) Biochem. J. 363, 609-617).

[6] = Differential scanning calorimetry of avidin and AVR4/5 forms; type: physicochemical; details: for DSC Tm(−biotin): 50 mM sodium phosphate pH 7.0, 100 mM NaCl
Method: The thermodynamics of the heat-induced unfolding of the proteins were studied using DSC. The transition midpoint of heat-induced denaturation (Tm) of the avidin and different AVR4/5 forms was studied using a Nano II differential scanning calorimeter (Calorimetric Sciences Corporation, Provo, Utah, USA). The reference cell was filled with buffer whereas the sample cell was filled with proteins dissolved in 50 mM sodium phosphate buffer, pH 7.0 containing 100 mM NaCl. Avidin and AVR4/5(C124S) were also analyzed in 50 mM Na-acetate pH 4.0 containing 100 mM NaCl. Furthermore, AVR4/5 was analyzed in the presence of 2-mercaptoethanol (0.4% v/v). The samples (1.6-9.6 μM) were analyzed both in the absence and presence of a three fold molar excess of biotin/subunit. All samples were degassed before being loaded into the DSC. The thermograms were recorded as a function of temperature; between 25 and 130° C. at a rate of 55.6° C./h (Gonzalez, M., Argarana, C. E. & Fidelio, G. D. (1999) Biomol. Eng. 16, 67-72; Nordlund, H. R., Laitinen, O. H., Uotila, S. T., Nyholm, T., Hytönen, V. P., Slotte, J. P. & Kulomaa, M. S. (2003) J. Biol. Chem. 278, 2479-2483). Data was analyzed using Microcal Origin 6.0 and Cpcalc 2.1 (Applied Thermodynamics, Hunt Valley, Md.). The change in heat capacity upon unfolding (ΔCp) was measured for avidin and AVR4/5(C124S) using DSC data from measurements in pH 4.0 and 7.0. ΔCp was then obtained from the slope of ΔH vs. Tm (Liu, Y. & Sturtevant, J. M. (1996) Biochemistry 35, 3059-3062).

[7] = read-out: Kd calculated from the equilibrium response data
[8] = read-out: Kd calculated directly from the binding curves

| Molecule | Kd [1, 7] [nM] | Reversibility of biotin binding [2] | Dimeric form, relative proportion [3] [percentage] | Monomeric form, relative proportion [3] [percentage] | pI by isoelectric focusing (Isoelectric focusing) | kass [1] | other results |
| --- | --- | --- | --- | --- | --- | --- | --- |
| B1 | < 10 | 3 ± 2% | 50 | 50 | ≈ 10 |  |  |
| B2 | 100 | 18% and 18 ± 10% | 40 | 40 | ≈ 7 | (5.5 ± 1.5) × 10^4 M^−1 s^−1 | kdiss [1]: (2.4 ± 0.8) × 10^−3 s^−1; Kd [1, 8]: 44 nM; Tetrameric form, relative proportion [3]: 20 percentage |
| B3 | 1700 | 94 ± 3% |  | 100 | ≈ 5 | (1.8 ± 0.1) × 10^4 M^−1 s^−1 | kdiss [1]: (4.6 ± 1.1) × 10^−3 s^−1; Kd [1, 8]: 52 nM |
| B4 | 4.5 | 3 ± 3% | 20 | 80 | ≈ 7 | (1.8 ± 0.2) × 10^5 M^−1 s^−1 |  |
| B5 | < 10 | 5 ± 3% | 50 | 50 | ≈ 7 |  |  |
| B6 |  |  |  |  |  |  | kass [4]: (1.3 ± 0.3) × 10^4 M^−1s^−1; kdiss [4]: (1.8 ± 0.8) × 10^−3 s^−1; Kd ([4]; 50 mM borate pH 9.5, 1 M NaCl, read-out: Kd detected from the equilibrium response data): 110 nM; Kd ([4]; pH 9.5, 1 M NaCl, read-out: Kd detected directly from the binding curves): 140 nM; Reversibility of binding to biotin [5]: 3 ± 2%; DSC Tm(−biotin) [6]: 104.9 ± 0.3 °C |
| B7 |  |  |  |  |  |  | DSC Tm(−biotin) [6]: 106.5 ± 0.3 °C; ΔTm ([6]; change in Tm upon addition of a three-fold molar excess of biotin): 18.7 °C; ΔH of unfolding ([6]; sample without biotin): 169 ± 6.21 kcal/mol; DSC Tm (+biotin) ([6]; three-fold molar excess of biotin, pH 7.0): 125.2 ± 0.1 °C |
